Data taken from patent US20140287952A1 (ALDERBIO, published 2014).

B1: Ab8 (antibody, V domains shown)
VH: QVQLVESGGGVVQPGRSLRLSCAASGFTFSSYAMIWVRQAPGKGLEYIGYIDTDTSAYYASSVKGRFTISRDNSKNTLYLQMSSLRAEDTAVYYCARSYAAYGGYPATFDPWGQGTLVTVSS
VL: DIQMTQSPSSLSASVGDRVTITCQASEDIYNLLAWYQQKPGKVPKLLIYSASTLASGVPSRFSGSGSGTDYTLTISSLQPEDVATYYCQNNYLVTTYGVAFGGGTKVEIK
B2: Ab2 (antibody, V domains shown)
VH: SVEESGGRLVTPGTPLTLTCTVSGFSLSSYAMSWVRQAPGKGLEWIGIIDAIDNTYYASWAKGRFTISKTSTTVDLKMTSLTTGDTATYFCARASILGYSIATGFNIWGPGTLVTVSS
VL: AYDMTQTPASVEVAVGGTVTIKCQASQSISSHLAWYQQKSGQPPKLLIYRASTLESGVSSRFKGSGSGTEFTLTISDLECADAATYYCQQGYGVSDVDNGFGGGTEVVVK
B3: Ab4 (antibody, V domains shown)
VH: QSLEESGGRLVTPGTPLTLTCSVSGIDLSGYYMNWVRQAPGKGLEWIGVIGINGATYYASWAKGRFTISKTSSTTVDLKMTSLTTEDTATYFCARGDIWGPGTLVTVSS
VL: QVLTQTPSPVSAAVGSTVTINCQASQSVYHNTYLAWYQQKPGQPPKQLIYDASTLASGVPSRFSGSGSGTQFTLTISGVQCNDAAAYYCLGSYDCTNGDCFVFGGGTEVVVKR
B4: Ab3 (antibody, V domains shown)
VH: EVQLVESGGGLVQPGGSLRLSCAVSGLDLSSYYMQWVRQAPGKGLEWVGVIGINDNTYYASWAKGRFTISRDNSKTTVYLQMNSLRAEDTAVYFCARGDIWGQGTLVTVSS
VL: QVLTQSPSSLSASVGDRVTINCQASQSVYDNNYLAWYQQKPGKVPKQLIYSTSTLASGVPSRFSGSGSGTDFTLTISSLQPEDVATYYCLGSYDCSSGDCFVFGGGTKVEIKR
B5: Ab7 (antibody, V domains shown)
VH: QEQLKESGGRLVTPGTPLTLTCTVSGFSLSSYAMIWVRQAPGKGLEYIGYIDTDTSAYYASWVKGRFTISRTSTTVDLKITSPTTEDTATYFCARSYAAYGGYPATFDPWGPGTLVTVSS
VL: DVVMTQTPASVSQPVGGTVTIKCQASEDIYNLLAWYQQKPGQPPKLLIYSASTLASGVPSRFKGSGSGTEYTLTISGLECADAATYYCQNNYLVTTYGVAFGGGTEVVVK

Legend:
[1] = molecular target: T1, human beta-NGF (human, UniProt P01138 122-241, limits assumed, biotinylated in the ELISA (site not stated)); test: ELISA: biotinylated hu B-NGF on Neutravidin plates, antibody dilution series, anti-human IgG Fc-HRP, OD450
T1 construct: Biotinylated and captured on Neutravidin plates in the ELISA; Used unlabelled in the TF1 proliferation assay; also called hu B-NGF; huB-NGF
T1 sequence (P01138 122-241 limits assumed): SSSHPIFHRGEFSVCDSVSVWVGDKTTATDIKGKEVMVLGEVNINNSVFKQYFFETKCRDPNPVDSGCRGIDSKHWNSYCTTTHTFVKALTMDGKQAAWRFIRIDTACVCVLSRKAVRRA

[2] = molecular target: T2, human PCSK9 (human, UniProt Q8NBP7 31-692, biotinylated in the ELISA (site not stated)); test: ELISA: biotinylated human PCSK9 on Neutravidin plates, antibody dilution series, anti-human IgG Fc-HRP, OD450
T2 construct: Biotinylated and captured on Neutravidin plates in the ELISA; Used unlabelled at 3 ug/mL in the HepG2 LDL uptake assay; also called huPCSK9; biotinylated-PCSK9
T2 sequence (Q8NBP7 31-692 limits assumed): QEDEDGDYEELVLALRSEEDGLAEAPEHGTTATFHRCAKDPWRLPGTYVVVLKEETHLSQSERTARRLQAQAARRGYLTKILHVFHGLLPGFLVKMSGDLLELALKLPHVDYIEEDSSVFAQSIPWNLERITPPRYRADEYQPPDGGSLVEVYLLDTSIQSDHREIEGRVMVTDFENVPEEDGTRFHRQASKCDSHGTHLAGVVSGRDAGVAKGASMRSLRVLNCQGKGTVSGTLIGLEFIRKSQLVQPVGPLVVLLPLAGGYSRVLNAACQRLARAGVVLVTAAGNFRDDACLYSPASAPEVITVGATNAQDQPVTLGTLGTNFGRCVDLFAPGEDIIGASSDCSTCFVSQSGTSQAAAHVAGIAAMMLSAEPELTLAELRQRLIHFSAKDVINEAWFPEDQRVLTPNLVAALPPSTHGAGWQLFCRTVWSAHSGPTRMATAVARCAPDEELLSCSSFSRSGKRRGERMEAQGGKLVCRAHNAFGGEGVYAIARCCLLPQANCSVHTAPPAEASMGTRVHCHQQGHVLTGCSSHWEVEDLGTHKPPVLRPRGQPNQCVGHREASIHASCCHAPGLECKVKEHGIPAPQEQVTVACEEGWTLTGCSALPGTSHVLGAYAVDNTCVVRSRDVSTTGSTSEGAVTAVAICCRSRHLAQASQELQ

[3] = molecular target: T2, human PCSK9; test: cell-based or functional assay
[4] = molecular target: T3, human CGRP alpha (human, UniProt P06881 83-119, N-terminally or C-terminally biotinylated (the two ELISAs were run separately)); test: ELISA: biotinylated human CGRP alpha on neutravidin plates (the sheet does not say whether N- or C-terminally biotinylated), antibody dilution series, OD450
T3 construct: Bought peptide; N- and C-terminally biotinylated forms were captured on neutravidin plates; also called HuCGRP alpha; CGRPα
T3 peptide (looked up): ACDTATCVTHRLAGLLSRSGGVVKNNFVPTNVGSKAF

| Binder | EC50 [1] [nM] | EC50 [4] [nM] | further results |
| --- | --- | --- | --- |
| B1 | 0.254 | – | – |
| B2 | – | – | EC50 [2]: 0.174 nM; IC50; LDL uptake assay: BODIPY-LDL uptake (RFUs) by HepG2 cells, antibody pre-incubated with 3 µg/mL PCSK9; RFUs rise with the antibody concentration [3]: 17.3 nM |
| B3 | – | 0.159 | – |
| B4 | – | 0.127 | – |
| B5 | 0.182 | – | – |
